Measurements as given in the supplement of paper PMC10065799, “High-throughput profiling of sequence recognition by tyrosine kinases and SH2 domains using bacterial peptide display” (eLife, 2023).

Assays:
AncSZ = assay: phosphorylation enrichment, bacterial display (enrichment ratio); higher = better substrate or ligand; peptides without Tyr show the background
EPHB1 = EPHB1 (UniProt P54762); assay: as above
EPHB2 = EPHB2 (UniProt P29323); assay: as above
FGFR1 = FGFR1 (UniProt P11362); assay: as above
FGFR3 = FGFR3 (UniProt P22607); assay: as above
FGFR3, sequence (P22607 whole entry, looked up): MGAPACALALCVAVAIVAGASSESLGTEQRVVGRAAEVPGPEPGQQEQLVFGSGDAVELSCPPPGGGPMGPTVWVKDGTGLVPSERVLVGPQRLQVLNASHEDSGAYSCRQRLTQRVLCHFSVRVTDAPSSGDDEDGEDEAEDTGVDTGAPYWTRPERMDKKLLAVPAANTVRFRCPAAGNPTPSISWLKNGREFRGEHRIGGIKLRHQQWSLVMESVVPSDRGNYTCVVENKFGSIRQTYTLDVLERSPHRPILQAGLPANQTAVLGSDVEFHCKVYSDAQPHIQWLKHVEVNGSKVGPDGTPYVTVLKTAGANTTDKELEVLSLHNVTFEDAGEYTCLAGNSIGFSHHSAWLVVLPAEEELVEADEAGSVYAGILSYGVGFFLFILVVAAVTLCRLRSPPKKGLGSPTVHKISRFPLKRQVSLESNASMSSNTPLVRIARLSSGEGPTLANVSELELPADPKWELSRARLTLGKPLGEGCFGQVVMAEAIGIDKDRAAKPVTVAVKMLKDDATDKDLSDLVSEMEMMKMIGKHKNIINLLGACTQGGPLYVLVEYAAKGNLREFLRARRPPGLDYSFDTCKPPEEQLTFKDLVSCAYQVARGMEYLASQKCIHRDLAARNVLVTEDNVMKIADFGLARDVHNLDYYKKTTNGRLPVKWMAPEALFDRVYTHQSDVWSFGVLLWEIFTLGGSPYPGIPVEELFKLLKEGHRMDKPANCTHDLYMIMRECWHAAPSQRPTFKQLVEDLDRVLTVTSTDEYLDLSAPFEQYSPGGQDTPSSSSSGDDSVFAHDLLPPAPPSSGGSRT

Fer (mouse) = assay: as above
Fes = Fes (UniProt P07332); assay: as above
Fes, sequence (P07332 whole entry, looked up): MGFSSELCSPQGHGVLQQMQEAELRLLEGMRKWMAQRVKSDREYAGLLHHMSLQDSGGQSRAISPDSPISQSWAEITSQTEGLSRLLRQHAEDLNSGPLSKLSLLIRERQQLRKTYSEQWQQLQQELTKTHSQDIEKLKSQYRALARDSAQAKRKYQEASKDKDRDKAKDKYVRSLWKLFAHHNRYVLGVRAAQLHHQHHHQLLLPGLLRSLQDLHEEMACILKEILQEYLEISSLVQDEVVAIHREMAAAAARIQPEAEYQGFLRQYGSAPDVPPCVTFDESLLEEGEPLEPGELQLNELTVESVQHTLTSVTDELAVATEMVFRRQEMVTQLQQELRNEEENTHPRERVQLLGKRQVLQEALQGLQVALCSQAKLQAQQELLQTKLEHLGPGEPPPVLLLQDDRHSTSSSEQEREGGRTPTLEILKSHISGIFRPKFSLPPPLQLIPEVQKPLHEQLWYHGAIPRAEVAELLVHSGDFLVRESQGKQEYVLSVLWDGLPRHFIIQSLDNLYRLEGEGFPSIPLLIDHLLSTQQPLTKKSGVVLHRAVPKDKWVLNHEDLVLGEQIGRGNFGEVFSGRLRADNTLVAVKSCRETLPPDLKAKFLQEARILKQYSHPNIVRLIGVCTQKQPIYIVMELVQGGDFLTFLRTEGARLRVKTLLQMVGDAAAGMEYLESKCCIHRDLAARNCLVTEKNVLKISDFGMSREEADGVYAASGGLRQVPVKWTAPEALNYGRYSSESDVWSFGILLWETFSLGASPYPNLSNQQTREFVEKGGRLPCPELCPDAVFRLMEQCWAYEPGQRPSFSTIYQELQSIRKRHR

Fyn = Fyn (UniProt P06241); assay: as above
Fyn, sequence (P06241 whole entry, looked up): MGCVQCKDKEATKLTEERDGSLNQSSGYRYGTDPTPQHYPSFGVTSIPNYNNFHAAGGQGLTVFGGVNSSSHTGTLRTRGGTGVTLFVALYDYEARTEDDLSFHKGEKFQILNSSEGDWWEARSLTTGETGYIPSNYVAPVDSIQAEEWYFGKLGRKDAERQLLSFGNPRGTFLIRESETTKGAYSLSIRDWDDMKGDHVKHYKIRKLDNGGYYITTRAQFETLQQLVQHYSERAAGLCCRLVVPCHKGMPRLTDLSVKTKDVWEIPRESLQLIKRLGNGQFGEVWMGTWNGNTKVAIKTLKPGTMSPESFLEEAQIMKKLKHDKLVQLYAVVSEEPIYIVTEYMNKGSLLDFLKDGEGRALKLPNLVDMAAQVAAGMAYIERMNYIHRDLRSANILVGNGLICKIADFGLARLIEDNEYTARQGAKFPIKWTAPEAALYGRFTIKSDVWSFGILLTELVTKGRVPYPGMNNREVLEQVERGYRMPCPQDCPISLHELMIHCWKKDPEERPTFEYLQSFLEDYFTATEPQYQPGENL

Hck = Hck (UniProt P08631); assay: as above
Hck, sequence (P08631 whole entry, looked up): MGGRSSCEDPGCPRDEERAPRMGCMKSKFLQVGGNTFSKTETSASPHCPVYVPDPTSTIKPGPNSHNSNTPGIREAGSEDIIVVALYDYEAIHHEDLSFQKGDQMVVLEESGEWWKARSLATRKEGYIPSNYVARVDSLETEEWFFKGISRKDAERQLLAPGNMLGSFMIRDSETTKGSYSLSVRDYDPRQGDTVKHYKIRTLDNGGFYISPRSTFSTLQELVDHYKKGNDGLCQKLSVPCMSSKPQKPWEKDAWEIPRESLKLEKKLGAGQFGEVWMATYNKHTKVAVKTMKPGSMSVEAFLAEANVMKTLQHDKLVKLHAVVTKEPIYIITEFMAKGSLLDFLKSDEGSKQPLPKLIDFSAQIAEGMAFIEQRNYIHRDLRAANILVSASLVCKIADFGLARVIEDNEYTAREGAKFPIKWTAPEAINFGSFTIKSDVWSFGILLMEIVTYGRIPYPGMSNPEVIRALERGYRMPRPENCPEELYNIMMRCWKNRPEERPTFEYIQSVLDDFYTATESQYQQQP

Jak2 = Jak2 (UniProt O60674); assay: as above
MERTK = MERTK (UniProt Q12866); assay: as above
MERTK, sequence (Q12866 whole entry, looked up): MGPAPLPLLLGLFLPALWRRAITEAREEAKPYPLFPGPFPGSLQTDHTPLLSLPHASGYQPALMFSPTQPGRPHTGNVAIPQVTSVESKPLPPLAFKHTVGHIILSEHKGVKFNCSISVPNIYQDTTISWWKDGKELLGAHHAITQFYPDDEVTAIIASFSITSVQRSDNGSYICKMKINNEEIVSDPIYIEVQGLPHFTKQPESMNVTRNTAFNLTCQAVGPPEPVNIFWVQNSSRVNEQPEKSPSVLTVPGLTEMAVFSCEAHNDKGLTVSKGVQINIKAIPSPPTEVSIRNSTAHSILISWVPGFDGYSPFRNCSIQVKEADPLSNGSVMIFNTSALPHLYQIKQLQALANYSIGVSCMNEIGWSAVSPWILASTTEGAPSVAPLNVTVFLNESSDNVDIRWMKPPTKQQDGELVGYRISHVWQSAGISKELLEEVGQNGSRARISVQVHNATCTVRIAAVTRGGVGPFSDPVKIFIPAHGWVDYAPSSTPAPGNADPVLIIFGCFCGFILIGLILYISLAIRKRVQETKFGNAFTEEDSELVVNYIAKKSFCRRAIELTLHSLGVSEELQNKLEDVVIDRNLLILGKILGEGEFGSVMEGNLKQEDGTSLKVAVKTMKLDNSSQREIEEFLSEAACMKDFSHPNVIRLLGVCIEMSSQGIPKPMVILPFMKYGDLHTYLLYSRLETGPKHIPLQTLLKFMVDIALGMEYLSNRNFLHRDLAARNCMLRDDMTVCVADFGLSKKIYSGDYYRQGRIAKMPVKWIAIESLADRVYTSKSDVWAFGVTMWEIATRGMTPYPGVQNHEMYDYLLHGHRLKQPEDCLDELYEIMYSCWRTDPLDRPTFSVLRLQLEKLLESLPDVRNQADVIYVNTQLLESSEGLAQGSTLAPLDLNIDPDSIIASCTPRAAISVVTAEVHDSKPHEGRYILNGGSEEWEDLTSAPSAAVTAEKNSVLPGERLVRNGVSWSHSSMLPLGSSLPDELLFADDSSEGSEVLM

c-Abl (mouse) = assay: as above
c-Src = assay: as above
Grb2 SH2 = Grb2 SH2 (UniProt P62993); assay: SH2 binding enrichment of the phosphorylated peptide, bacterial display (enrichment ratio); higher = better substrate or ligand; peptides without Tyr show the background
SHP2-C SH2 = assay: as above
c-Src SH2 = assay: as above
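Throughout, for SH2 binding enrichment of the phosphorylated peptide, bacterial display: peptide library displayed on the E. coli surface as eCPX fusions, selected cells deep-sequenced, score is each peptide's frequency after selection divided by its frequency in the input.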
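Throughout, for phosphorylation enrichment, bacterial display: 11-residue human phosphosite peptides and single-mutation variants displayed on the E. coli surface, counted by deep sequencing, each peptide's frequency after selection divided by its frequency in the unselected input library; frequency after pTyr selection over input frequency; kinase dosed for 20-30% of maximal phosphorylation in three min.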

EPHB2, sequence (P29323 whole entry, looked up): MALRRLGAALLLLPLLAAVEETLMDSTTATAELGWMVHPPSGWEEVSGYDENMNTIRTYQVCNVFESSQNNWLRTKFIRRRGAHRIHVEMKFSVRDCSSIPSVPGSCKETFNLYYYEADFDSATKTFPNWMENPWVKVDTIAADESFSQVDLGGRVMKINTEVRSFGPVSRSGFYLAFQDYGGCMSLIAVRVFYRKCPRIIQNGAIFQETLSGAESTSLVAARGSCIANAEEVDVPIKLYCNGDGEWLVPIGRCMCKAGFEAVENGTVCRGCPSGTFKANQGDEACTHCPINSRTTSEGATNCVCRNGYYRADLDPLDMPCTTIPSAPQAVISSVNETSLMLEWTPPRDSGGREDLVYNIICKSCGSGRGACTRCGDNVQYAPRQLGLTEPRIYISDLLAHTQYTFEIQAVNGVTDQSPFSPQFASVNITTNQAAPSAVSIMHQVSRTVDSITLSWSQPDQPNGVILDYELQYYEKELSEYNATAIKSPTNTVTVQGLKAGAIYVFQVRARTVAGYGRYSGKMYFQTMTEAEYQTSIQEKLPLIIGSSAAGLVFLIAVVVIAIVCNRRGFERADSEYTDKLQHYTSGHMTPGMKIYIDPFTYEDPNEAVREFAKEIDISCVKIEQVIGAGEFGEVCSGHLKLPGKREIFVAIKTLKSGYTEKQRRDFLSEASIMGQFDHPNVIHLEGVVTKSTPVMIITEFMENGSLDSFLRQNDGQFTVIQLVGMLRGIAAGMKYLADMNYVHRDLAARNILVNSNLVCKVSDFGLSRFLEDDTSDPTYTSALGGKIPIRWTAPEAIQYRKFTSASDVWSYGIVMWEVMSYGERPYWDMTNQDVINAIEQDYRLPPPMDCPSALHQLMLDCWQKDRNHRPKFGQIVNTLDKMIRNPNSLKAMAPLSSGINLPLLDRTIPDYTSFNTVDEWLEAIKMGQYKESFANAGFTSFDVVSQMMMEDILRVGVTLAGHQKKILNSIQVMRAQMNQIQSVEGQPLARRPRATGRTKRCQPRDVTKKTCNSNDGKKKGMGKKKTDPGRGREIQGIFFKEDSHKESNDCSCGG

Row | Sequence | SH2 binding enrichment (Grb2 SH2) | SH2 binding enrichment (SHP2-C SH2) | SH2 binding enrichment (c-Src SH2) | phosphorylation enrichment (AncSZ) | phosphorylation enrichment (EPHB1) | phosphorylation enrichment (EPHB2) | phosphorylation enrichment (FGFR1) | phosphorylation enrichment (FGFR3) | phosphorylation enrichment (Fer (mouse)) | phosphorylation enrichment (Fes) | phosphorylation enrichment (Fyn) | phosphorylation enrichment (Hck) | phosphorylation enrichment (Jak2) | phosphorylation enrichment (MERTK) | phosphorylation enrichment (c-Abl (mouse)) | phosphorylation enrichment (c-Src)
1 | SHSMRYFYTAV [HLA-C_Y31_D33Y] | 1.28 | 1.97 | 2 | 1.04 | 0.71 | 0.689 | 0.778 | 0.893 | 0.587 | 1.26 | 0.611 | 0.631 | 1.2 | 3.29 | 0.691 | 0.928
2 | SIKDKYVTALF [KCNH2_Y611_YF] | 0.8 | 0.693 | 0.433 | 0.684 | 0.449 | 0.5 | 0.525 | 0.488 | 0.441 | 0.846 | 0.465 | 0.498 | 0.742 | 0.471 | 0.668 | 0.502
3 | SIKHKYVTALF [KCNH2_Y611_D609H_YF] | 0.78 | 0.901 | 0.473 | 0.674 | 0.471 | 0.474 | 0.354 | 0.511 | 0.416 | 0.622 | 0.377 | 0.419 | 0.694 | 0.4 | 0.524 | 0.402
4 | SISYDYCRVPM [BST2_Y8_T4I] | 1.01 | 0.705 | 0.831 | 3.91 | 11 | 9.95 | 7.84 | 5.46 | 3.87 | 1.17 | 0.965 | 2.62 | 3.05 | 2.98 | 1.03 | 1.17
5 | SIVEDYRPPFY [ACVRL1_Y421_G416S] | 0.599 | 0.622 | 0.462 | 1.22 | 0.785 | 0.551 | 0.552 | 0.743 | 0.804 | 1.25 | 0.483 | 0.427 | 1.1 | 0.496 | 0.995 | 0.472
6 | SLEKGYELPDG [ACTC1_Y242_S241G] | 0.832 | 0.847 | 5.21 | 0.994 | 0.475 | 0.499 | 0.438 | 0.545 | 0.436 | 0.909 | 0.49 | 0.488 | 0.756 | 0.35 | 0.6 | 0.368
7 | SPGGDYAAMGA [ERBB3_Y1276_G1271S] | 0.749 | 0.487 | 1.03 | 0.7 | 1.52 | 0.901 | 0.705 | 0.609 | 0.456 | 0.861 | 0.484 | 0.455 | 0.708 | 0.476 | 0.622 | 0.445

More lines, main results first:

Row | SH2 binding enrichment (Grb2 SH2) | SH2 binding enrichment (SHP2-C SH2) | SH2 binding enrichment (c-Src SH2) | Sequence | phosphorylation enrichment (AncSZ) | phosphorylation enrichment (EPHB1) | phosphorylation enrichment (EPHB2) | phosphorylation enrichment (FGFR1) | phosphorylation enrichment (FGFR3) | phosphorylation enrichment (Fer (mouse)) | phosphorylation enrichment (Fes) | phosphorylation enrichment (Fyn) | phosphorylation enrichment (Hck) | phosphorylation enrichment (Jak2) | phosphorylation enrichment (MERTK) | phosphorylation enrichment (c-Abl (mouse)) | phosphorylation enrichment (c-Src)
8 | 1.02 | 1.29 | 1.96 | SKGFAYVHFDS [PABPC5_Y149_YF] | 0.814 | 0.477 | 0.466 | 0.393 | 0.584 | 0.408 | 0.871 | 0.381 | 0.378 | 0.832 | 0.378 | 0.681 | 0.314
9 | 0.792 | 0.595 | 0.466 | SKLTIYDARPS [MTM1_Y277] | 0.779 | 0.629 | 0.737 | 0.606 | 0.751 | 0.484 | 1.17 | 2.4 | 7.23 | 0.655 | 0.825 | 0.593 | 2.05
10 | 0.888 | 0.867 | 0.517 | SLGKGYSVGGC [MC4R_Y35_D37V] | 0.724 | 0.523 | 0.501 | 0.456 | 0.627 | 0.484 | 0.898 | 0.432 | 0.434 | 0.846 | 0.354 | 0.593 | 0.384
11 | 0.784 | 6.41 | 1.85 | SLIDGYFRLTE [JAK2_Y372_A377E_YF] | 1.07 | 0.571 | 0.436 | 0.553 | 0.715 | 0.545 | 1.08 | 0.456 | 0.442 | 4.29 | 0.542 | 0.867 | 0.446
12 | 0.843 | 1.21 | 2.49 | SLIDGYYRLTE [JAK2_Y372_A377E] | 1.17 | 0.521 | 0.531 | 1.11 | 0.997 | 0.425 | 1.1 | 0.427 | 0.583 | 5.79 | 0.441 | 0.533 | 0.639
13 | 1 | 0.62 | 0.759 | SLIERYEPSET [PLCD1_Y258] | 1.07 | 0.742 | 0.602 | 0.661 | 0.678 | 0.574 | 1.1 | 0.502 | 0.54 | 0.966 | 0.727 | 0.717 | 0.497
14 | 0.892 | 0.659 | 0.769 | SMVVPYEPPEV [TP53_Y220_V216M] | 1.11 | 0.592 | 0.625 | 0.45 | 0.81 | 0.617 | 1.33 | 0.462 | 0.407 | 1.3 | 0.465 | 0.852 | 0.526
15 | 0.891 | 1.19 | 3.28 | SNPAYYVLEGV [INPPL1_Y987_N982S] | 1 | 0.769 | 0.609 | 15.1 | 12.1 | 0.515 | 0.921 | 1.25 | 0.917 | 4 | 7.46 | 0.538 | 1.21
16 | 0.774 | 0.559 | 0.481 | SNSAAYSGSVA [PDLIM5_Y382_T381A] | 0.512 | 0.398 | 0.393 | 0.33 | 0.421 | 0.343 | 0.566 | 0.404 | 0.354 | 0.636 | 0.381 | 0.697 | 0.409
17 | 0.689 | 0.729 | 0.462 | SPFAVYRFFTF [RPGRIP1_Y826_YF] | 1.22 | 0.501 | 0.519 | 0.637 | 0.798 | 0.496 | 1.33 | 0.68 | 0.867 | 1.08 | 0.45 | 0.961 | 0.91
